Target: T1, human GITR, membrane bound (human, UniProt Q9Y5U5 26-241)
T1 sequence: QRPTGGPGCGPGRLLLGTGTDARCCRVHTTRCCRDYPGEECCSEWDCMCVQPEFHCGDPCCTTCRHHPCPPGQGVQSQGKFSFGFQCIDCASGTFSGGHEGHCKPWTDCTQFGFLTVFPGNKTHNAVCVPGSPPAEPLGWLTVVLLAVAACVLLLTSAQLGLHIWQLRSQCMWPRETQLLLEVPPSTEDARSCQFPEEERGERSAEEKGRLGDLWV
Experiment: cell-based or functional assay

B1: 28F3 (antibody, human IgG2, kappa)
heavy: QVQLVESGGGVVQPGRSLRLSCAASGFTFSSYGMHWVRQAPGKGLEWVAVIWYEGSNKYYADSVKGRFTISRDNSKNTLYLQMNSLRAEDTAVYYCARGGSMVRGDYYYGMDVWGQGTTVTVSSASTKGPSVFPLAPCSRSTSESTAALGCLVKDYFPEPVTVSWNSGALTSGVHTFPAVLQSSGLYSLSSVVTVPSSNFGTQTYTCNVDHKPSNTKVDKTVERKCCVECPPCPAPPVAGPSVFLFPPKPKDTLMISRTPEVTCVVVDVSHEDPEVQFNWYVDGVEVHNAKTKPREEQFNSTFRVVSVLTVVHQDWLNGKEYKCKVSNKGLPAPIEKTISKTKGQPREPQVYTLPPSREEMTKNQVSLTCLVKGFYPSDIAVEWESNGQPENNYKTTPPMLDSDGSFFLYSKLTVDKSRWQQGNVFSCSVMHEALHNHYTQKSLSLSPGK
light: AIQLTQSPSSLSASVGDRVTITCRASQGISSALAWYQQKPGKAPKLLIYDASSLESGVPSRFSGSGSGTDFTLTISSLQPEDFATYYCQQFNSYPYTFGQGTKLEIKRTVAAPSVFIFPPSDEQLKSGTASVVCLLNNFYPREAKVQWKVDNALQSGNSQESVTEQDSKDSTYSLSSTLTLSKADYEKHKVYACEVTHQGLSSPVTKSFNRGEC
B1 was tested. Which “NFKB signaling (phospho-p65), CD4+ T cells, Emax (%)” value did it give?
Its value is 69%.

And the “NFKB signaling (phospho-p65), CD8+ T cells, Emax (%)” value?
The value was 85%.
